Literature values, collected in US9550786B2, “4-fluoropiperidine orexin receptor antagonists” (Merck Sharp & Dohme Corp., priority 2013, dated 2017).
Ends that are not written are not given here.

Key:
OX1R = molecular target: T1, OX1R (Homo sapiens, UniProt O43613)
T1 sequence (O43613 1-425): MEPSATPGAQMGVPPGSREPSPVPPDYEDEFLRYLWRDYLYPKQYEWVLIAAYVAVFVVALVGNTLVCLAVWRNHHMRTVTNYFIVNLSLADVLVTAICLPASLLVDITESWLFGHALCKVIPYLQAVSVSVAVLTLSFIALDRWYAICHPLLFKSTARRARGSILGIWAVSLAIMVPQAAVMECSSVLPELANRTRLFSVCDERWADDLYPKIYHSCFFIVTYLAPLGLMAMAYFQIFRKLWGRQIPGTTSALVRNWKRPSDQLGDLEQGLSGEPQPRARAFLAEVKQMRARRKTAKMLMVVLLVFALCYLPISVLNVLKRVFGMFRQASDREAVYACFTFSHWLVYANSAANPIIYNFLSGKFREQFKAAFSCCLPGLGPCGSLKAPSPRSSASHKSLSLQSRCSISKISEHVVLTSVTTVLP

OX2R = molecular target: T2, OX2R (Homo sapiens, UniProt O43614)
T2 sequence (O43614 1-444): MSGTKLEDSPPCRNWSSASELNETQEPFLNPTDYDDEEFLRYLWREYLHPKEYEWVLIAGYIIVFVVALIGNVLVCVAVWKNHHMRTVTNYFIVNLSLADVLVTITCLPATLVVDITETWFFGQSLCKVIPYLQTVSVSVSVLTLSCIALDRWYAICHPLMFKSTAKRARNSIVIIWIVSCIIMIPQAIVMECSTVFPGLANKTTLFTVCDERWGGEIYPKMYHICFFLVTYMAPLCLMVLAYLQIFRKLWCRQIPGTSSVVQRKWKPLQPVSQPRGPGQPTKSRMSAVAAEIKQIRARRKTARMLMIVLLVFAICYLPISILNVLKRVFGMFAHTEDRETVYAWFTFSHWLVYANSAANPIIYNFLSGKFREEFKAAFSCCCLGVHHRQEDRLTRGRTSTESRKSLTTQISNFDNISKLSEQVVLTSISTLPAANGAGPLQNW

Substance	binding affinity toward OX1R (OX1R)	binding affinity toward OX2R (OX2R)
orexin A (QPLPDCCRQKTCSCRLYELLHGAGNHAAGILTL; not fully specified (residue 1, C-terminus, bridges); cysteine pairing not given here; UniProt O43612 34-66, looked up) [OX-A]	20 nM	
orexin B [OX-B]	420 nM	36 nM
